From patent US10617759B2, “Light-stimulated release of cargo from oligonucleotides” (Trustees of Boston University, priority 2016, dated 2020)

Assay: Protein caging and uncaging, particle counting of TEM images
Type: physicochemical
Details: low power light irradiation for 60 seconds (302 nm)
Experimental: BSA was directly caged through the reaction of our crosslinker with the surface amino groups on the protein. Streptavidin was indirectly caged by attaching biotin-amine to the nanocage cavity and then subsequently mixing with the protein. […] None were seen tethered to the cage exterior.
TEM samples were prepared by placing 3 μL of sample solution onto a carbon coated grid (FCF400-Cu, Electron Microscopy Sciences) which was previously charged using a plasma etcher (30 seconds of irradiation). After 2 minutes, the solution was wicked away from the grid with filter paper (Whatman 50 hardened). The grid was immediately treated with stain for 30 seconds and excess solution was wicked away. The remaining solution on the grid was evaporated at room temperate prior to imaging. TEM images were acquired with an FEI Tecnai Spirit Transmission Electron Microscope operated at 80 kV. Saturated uranyl formate (in ddH2O prepared freshly before usage) was used for protein caging experiments and 2% uranyl acetate (diluted with ddH2O from 4%, Electron Microscopy Sciences) was used for all other samples.
Protein containing nanocages were created following the general cavity functionalization protocol. 5 equivalents per oligo handle were used. […] The extent of uncaging was analyzed using particle counting of the TEM images. The entirety of each TEM image was analyzed to avoid bias.

streptavidin
nanocages containing protein after light irradiation: 9% | uncaging efficiency: 87%
